The text below walks through data of patent US20230110249A1 (University of California, published 2023).

The target in assay [1] is T1, human ROR1 protein (construct not stated) (human, UniProt Q01973 30-406, limits assumed).
T1 construct: also called hROR1
Briefly: method not stated (binding affinity; FIG. 12C).

Assay [2] has as its target T1, human ROR1 protein (construct not …). In words: method not stated (FIG. 12).
Assay [3] deals with recombinant human ROR1 protein with the mouse amino acid residue at position 138 (human, UniProt Q01973 30-406, limits assumed). Briefly: immunoblot after non-denaturing PAGE (FIG. 10). From the text:
Constructs depicted in FIG. 6 were used to select high affinity recombinant antibodies. […] Human and chimeric ROR1-ex constructs were transfected into 293 cells. This allowed for production of recombinant human-mouse chimeric ROR1 proteins that could be size separated in a non-denaturing PAGE gel or SDS PAGE gel for immunoblot analysis with different anti-ROR1 mAb. […] The full human extracellular domain is provided on the far left lane of either gel (FIG. 11).
For orientation: In western blotting, separated proteins are transferred to a membrane and probed.

T1 sequence (Q01973 30-406 limits assumed): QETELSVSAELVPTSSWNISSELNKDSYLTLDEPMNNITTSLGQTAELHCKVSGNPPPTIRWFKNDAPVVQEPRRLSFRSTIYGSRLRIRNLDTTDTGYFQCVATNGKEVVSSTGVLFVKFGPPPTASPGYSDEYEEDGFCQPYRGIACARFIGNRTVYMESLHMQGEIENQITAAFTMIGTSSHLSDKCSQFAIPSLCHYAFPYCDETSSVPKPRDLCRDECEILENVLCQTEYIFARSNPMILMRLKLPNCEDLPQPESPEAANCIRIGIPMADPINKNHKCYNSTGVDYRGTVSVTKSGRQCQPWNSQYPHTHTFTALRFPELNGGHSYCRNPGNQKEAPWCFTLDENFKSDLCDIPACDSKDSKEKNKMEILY
Sequence of recombinant human ROR1 protein with the mouse amino acid residue at position 138 (Q01973 30-406 E138K limits assumed): as the sequence (Q01973 30-406 limits assumed) above, with E109K counted along it

B1: anti-ROR1 monoclonal antibody D10 (antibody, V domains shown)
VH: QVQLKESGPGLVAPSQTLSITCTVSGFSLTSYGVHWVRQPPGKGLEWLGVIWAGGFTNYNSALKSRLSISKDNSKSQVLLKMTSLQTDDTAMYYCARRGSSYSMDYWGQGTSVIVSS
VL: EIVLSQSPAITAASLGQKVTITCSASSNVSYIHWYQQRSGTSPRPWIYEISKLASGVPVRFSGSGSGTSYSLTISSMEAEDAAIYYCQQWNYPLITFGSGTKLEIQ
In turn, B1 showed a dissociation constant (Kd) in assay [1] of 41 nM.

B2: anti-human ROR1 antibody 99961 (antibody, V domains shown)
VH: EIQLQQSGPVLVKPGASVKVSCKASGYAFTAYNIHWVRQSHGKRLEWIGSFDPYDGGSSYNQKFKDKATLTVDKSSTTAYMHLNSLTSEDSAVYYCARGWYYFDYWGHGTTLTVSS
VL: DVQITQSPSYLAASPGETITINCRASKSISKYLAWYQEKPGKTNKLLIYSGSTLQSGIPSRFRGSGSGTDFTLTISSLEPEDFAMYYCQQHDESPYTFGEGTKLEIK
notes: also called Ab9991
Turning to B2, in assay [2], the “fold higher binding affinity than D10” value worked out at 50 fold. In addition, the binding result in assay [3] is recorded as “no binding”. The same molecule yielded a Kd in assay [1] of 0.8 nM.

As a reminder, the Kd is the equilibrium constant for the complex coming apart. Read a high Kd as weaker binding.
